# Results taken from patent US20160030544A1 (published 2016).
# Target: fHbp v2.22 WT
# Assay: SPR
binder,measurement,value
fH6-7 (other) TLKPCDYPDIKHGGLYHENMRRPYFPVAVGKYYSYYCDEHFETPSGSYWDHIHCTQDGWSPAVPCLRKCYFPYLENGYNQNYGRKFVQGKSIDVACHPGYALPKAQTTVTCMENGWSPTPRCI,Kd,0.3 nM
